The labels stand for the following.
B1: FNR D154A (natural protein, E. coli (strain MG1655), UniProt P0A9E5 1-250, looked up)
chain: MIPEKRIIRRIQSGGCAIHCQDCSISQLCIPFTLNEHELDQLDNIIERKKPIQKGQTLFKAGDELKSLYAIRSGTIKSYTITEQGDEQITGFHLAGDLVGFDAIGSGHHPSFAQALETSMVCEIPFETLDDLSGKMPNLRQQMMRLMSGEIKGAQDMILLLSKKNAEERLAAFIYNLSRRFAQRGFSPREFRLTMTRGDIGNYLGLTVETISRLLGRFQKSGMLAVKGKYITIENNDALAQLAGHTRNVA
B2: YnfK I184Y (enzyme, E. coli (strain MG1655), UniProt P0A6E9 1-231, looked up)
chain: MLKRFFITGTDTSVGKTVVSRALLQALASQGKTVAGYKPVAKGSKETPEGLRNKDALVLQSVSTIELPYEAVNPIALSEEESSVAHSCPINYTLISNGLANLTEKVDHVVVEGTGGWRSLMNDLRPLSEWVVQEQLPVLMVVGIQEGCINHALLTAQAIANDGLPLIGWVANRINPGLAHYAEYIDVLGKKLPAPLIGELPYLPRAEQRELGQYIRLAMLRSVLAVDRVTV
B3: YnfK S13E/I184Y (enzyme, E. coli (strain MG1655), UniProt P0A6E9 1-231, looked up)
chain: MLKRFFITGTDTEVGKTVVSRALLQALASQGKTVAGYKPVAKGSKETPEGLRNKDALVLQSVSTIELPYEAVNPIALSEEESSVAHSCPINYTLISNGLANLTEKVDHVVVEGTGGWRSLMNDLRPLSEWVVQEQLPVLMVVGIQEGCINHALLTAQAIANDGLPLIGWVANRINPGLAHYAEYIDVLGKKLPAPLIGELPYLPRAEQRELGQYIRLAMLRSVLAVDRVTV
B4: YnfK S13E (enzyme, E. coli (strain MG1655), UniProt P0A6E9 1-231, looked up)
chain: MLKRFFITGTDTEVGKTVVSRALLQALASQGKTVAGYKPVAKGSKETPEGLRNKDALVLQSVSTIELPYEAVNPIALSEEESSVAHSCPINYTLISNGLANLTEKVDHVVVEGTGGWRSLMNDLRPLSEWVVQEQLPVLMVVGIQEGCINHALLTAQAIANDGLPLIGWVANRINPGLAHYAEIIDVLGKKLPAPLIGELPYLPRAEQRELGQYIRLAMLRSVLAVDRVTV
B5: YnfK T114A/I184Y (enzyme, E. coli (strain MG1655), UniProt P0A6E9 1-231, looked up)
chain: MLKRFFITGTDTSVGKTVVSRALLQALASQGKTVAGYKPVAKGSKETPEGLRNKDALVLQSVSTIELPYEAVNPIALSEEESSVAHSCPINYTLISNGLANLTEKVDHVVVEGAGGWRSLMNDLRPLSEWVVQEQLPVLMVVGIQEGCINHALLTAQAIANDGLPLIGWVANRINPGLAHYAEYIDVLGKKLPAPLIGELPYLPRAEQRELGQYIRLAMLRSVLAVDRVTV
B6: YnfK T114A (enzyme, E. coli (strain MG1655), UniProt P0A6E9 1-231, looked up)
chain: MLKRFFITGTDTSVGKTVVSRALLQALASQGKTVAGYKPVAKGSKETPEGLRNKDALVLQSVSTIELPYEAVNPIALSEEESSVAHSCPINYTLISNGLANLTEKVDHVVVEGAGGWRSLMNDLRPLSEWVVQEQLPVLMVVGIQEGCINHALLTAQAIANDGLPLIGWVANRINPGLAHYAEIIDVLGKKLPAPLIGELPYLPRAEQRELGQYIRLAMLRSVLAVDRVTV

The first series concerns the molecule itself. Nature of the series: SEC. For orientation: In gel filtration, larger molecules generally elute earlier.
Take B1: the “stoichiometry N” value came out at 2.

A further series concerns the molecule itself. Nature of the series: cross-linking.
Regarding B2, the binding result is “binds”. As for B3, the binding result is reported as “binds”. Turning to B4, the binding result is “binds”. On to B5, for which the binding result is recorded as “binds”. For the protein B6, the binding result was “binds”.

A word on the stoichiometry N: it is a count of units in the complex or per binding partner.

The values are drawn from article PMC8599648 (Molecular microbiology, 2021).
